# Assay: yeast display, Sf9 membrane polyspecificity reagent, FACS + sequencing; frameworks hold sequencing errors
# In short: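 Galactose-induced (36–48 hours) yeast carrying a synthetic nanobody display library were exposed to 10% biotinylated, detergent-solubilized Sf9 membrane reagent at 4 °C for 1 hour. FACS followed streptavidin microbead enrichment, using low and high (top ~1%) gates for expression (anti-HA) and reagent binding (streptavidin). Colony PCR, MiSeq 2 × 250 sequencing and CDR-length filtering followed. Labels for polyreactivity reflect the gate of origin.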
row,Sequence,polyreactivity (PSR sort gate)
1,QVQLVESGGGLVHAGGSLRLSCAASGSTFWYNAMGWYRQAPGKERELVAAITWSGSRTYYSDSVKGRFTISRDNAKNTVYLQMNSLKPEDTAVYYCNRTRSFTRYDVFYGTIPAFDYWGQGTQVTVSS,high polyreactivity
2,QVQLVESGGGLVQAGGSLRLSSAASGSTFAEYAMGWYRQAPGKERELVAAIRWSGGSTSYADSVKGRFTISRDNAKNTVYLQMNSLKPEDTAVYYCAAERFWYDGEVKLYVLSYYWGQGTQVTVSS,low polyreactivity
3,QVQRVESGGGLVQAGGSLRLSCPASGSTLYGYAMGWYRPSPGKERELVAGITRGGSTSYADSEKGRFTISRDNAKNTVYLQMNSLKPEDTAVYYCAARSYPGSPVRYDYWGQGTQVTVSS,high polyreactivity
4,QVQLVESGGGLLQAGGRLRLSCAASGSIFAAYTMGWYRQAPWKERELVAAISVSTVSTYYADSVKGRFTISRDNAKITVYLQMNSLKPEDTAVYYCNADPTDSYPQKYEHDSWGQGTQVTVSS,low polyreactivity
5,QVQLVESGGGLVQAGGSLRLSCAASGGIFSWYAMGWYRQAPGKERELVAAISWSGSRTYYADSVKGRFTISRDNAKNTVYLQMNCLKPEDTAVYYCAADYIFRRYPVGGIYDYDYWGQGTQVTVSS,high polyreactivity
6,QVQLVESGGGLVQAGGSLRLSCAASGRIFLYYTMGWYRQAPGKERELDAAITRSGGSTYYADSVKGRFTISRDNAKNTVYLQMNSLKPEDTAVYYCNRAYVRYVPMNYWGQGTQVTVSS,high polyreactivity
7,QVQLVESGGGLVQAGGSLRLSCAASGRIIASYAMGWNRHAPGKETELVAAISLSGGSTYYADSVKGRFTISRDNAKNTVYLQMNSLKPEDCAVYYCAAKNYRRYRDYYWGQGTQVSVSS,high polyreactivity
8,QVQLVESGAGLVQAGGSLRLICAATGFTLGSNAMGSYRKAPGKERELVAAISKSGGSTYYADSVKGRFTISRDNAKNTVYLQMNSLKPDDTAVYYCAARYLYQGYRYDYWGQGTQVTVSS,high polyreactivity
9,QVQLVESAGGLVQAGGSLRLSCAASGIIFSYYVMGWYRQAPGKERELVAAITTSGSRTYYADSVKGRFTISRDNAKITVYLQMNSLKPEVTSVYYCAAADAGLSVSSYRTYYYWGQGTQVTVSS,high polyreactivity
10,QVQLVESGGGLVQAGGSLRLSCAASGNIFRKNAMGWYRQAPGKERELVAAITSVGSTNYADSVKGRFTISRDNAKNTVYLQMTSLKPEDTAVYYCDARSQIYYRYRSYGYWGQGTQVTVSS,high polyreactivity
11,QVQLVESGGGLVQAGGSLRLSCAASGYIFWSNTMGWYRQAPGKERELVAAISQSTASTYYADSVKGRFTISRDNAKNTVYLQMNSLKPEDTAVYYCAADDYIDGDDYWGQGTQVTVSS,low polyreactivity
12,QVQLVESGGGLVQAGGSLRLSCAASGSNSYFNAMGWYRQAPGKERELVAAITSGGSTYYADSVKGRFTISRDNAKNTVYLQMNSLKPEDTAVYYCNAPLEWGVYAAQNWDDGYWGQGTQVTVSS,low polyreactivity
13,QVQLVESGGGLVQAGGSLRISCAASGLSFYRYTMGWYRHAPGKEREFVAAITAGGSTYYADSVKGRFTISRDNAKNPVYLQMNRLKPEDTAVYYCAPRVLMEQYTYIKYDYWGQGTQVTVSS,high polyreactivity
14,QVQLVESGGGLVQAGGSLRLSCAASGSTIFENVMGWYRQAPGKEREFVAAINTSGGSTYYADSVKGRFTISRDNAKNTVYLQMNILKPEDTAVYYCARDSYWELDYWGQGTQVTVSS,low polyreactivity
15,QVQLVESWGGLVQAGGSLRLSCAASGSIFFPNAMGWYRQAPWKERELVAAIRGGTNTYYADSVKGRFTISRDNAKNTVYLQMNSLKPEDTAVYYCAARRSSHWFTYDYWGQGTQVTVSS,high polyreactivity
16,QVQLVESGGGLVQAGGSLRLSCAASGSITYLYAMGSYRQAPGKERELLASITWSGGSTYYADSVKGRFTISRDNAKNTVYLQMNSLKPEDTAVYDCAALYQPFPWTWDGYYWGQGTQVTVSS,low polyreactivity
17,QVQLVESGGGLVQAGGSLRLSCAACGRTFRGYAMGWYRQAPGKERELVAAITSGGSTYYADSVKGRFTISRDNAKNTDFLEMNSLKPEDTAVYYCNKLYYSGKPRFRYDYWGQGTQVTVSS,high polyreactivity
18,QVQLQESGGGLVQAGGSPRLSCAASDNIFPDSVMCWYRQAPGKERELVATIGFGATTNYADSVKGRFTISRDNAKNTVYLQMNSLKPEDTAVYYCAADPLIYEYFCYWGQGSQVTVSS,low polyreactivity
19,QVQLVESGGGLVQAGGRLRLSCAASGSIFNRYAMGWYRQAPGKERELVAAISSTGSTYYADSVKGRFTISRDNAKNTVYLQMNSLKPEDTAVYYCNADATHDLLRVDTYEYWGQGTQVTVSS,low polyreactivity
20,QVQLVESGGGLVQAGGSLRVSCADSGNILYLYAMGWYREAPGKERELVAAISGNGGRTYYADSVKGRFTISRDNAKNTVYLQMNSLKPEDTAVYDCAADYAGRRFWYYHGLDSWGQGTQVTVSA,high polyreactivity
21,QVQLVESGGGLVQAGGSLRLSCAASGHIFDHYAMGWYRQAPGKERELVAAISTSGTSTYYADSVKGRFTISRDNAKNTVYLQMNSLKPEDTAVYYCNAGGGHVGDVRYPYRYWRYNYWGQGTQVTVSS,low polyreactivity
22,QLQLVESGGGLVQAGGSLRLSCAASGFTFVSNAMGWYRQAPGKERELVAVISSGGSTTYADSVKGRFSISPDNAKNTVYLQMNSLKPEDTAGYYCATTNSQDSYEGGDYWGQGTQVTVSS,low polyreactivity

row,Sequence,polyreactivity (PSR sort gate)
1,QVQLVESGGGLVQAGGSLRLSCAASGYTFYKNTMGWYRQAPGKERELVARISRSGGSTYYADSVKGRFTISRDNAKNTVYLQMNSLKPEDTAVYYCAVRQGYRSGIYEYDYWGQGTQVTVSS,high polyreactivity
2,QVQLVESGGGLVQAGGSLRLSCAASGRTFWYYAMGWSRQAPGKERELVATITSGGSTYYADSVKGRFTISRDNAKNTVYLQMNSLKPEDTAVYYCAARKYYSRAYDYWGQGTQVTVSS,high polyreactivity
3,QVQLVESGGGLVQAGGSLRLSCAASGSILAGYAMGWYRQAPGKERELVAAITSGGGSTYYADSVKGRFTISSDNAKITVYLQMNSLKAEDTAVYYCARDSGYYYDEYYYWGQGTKVTVSS,low polyreactivity
4,QVQLVESGGGLVQAGGSLRLSCAASGRIFITNTMGWYRQAPGKERELVAAISRTGGSTYYADSVKGRFTISRDNAKNTVYLQMNSLKPEDTAVYYCNADWYGQLWWGVDYWGQGTQVTVSS,high polyreactivity
5,QVQLVESGGGLVQAGGSLRLSCAASGITFHDNAMGWYRQAPGKERELVAVITRRGGRTYYADSVKGRFTISRDNAKNTVYLQMNSLKPEDTAVYYCAAYYDYTHRFYYWGQGTQVTVSS,high polyreactivity
6,QVQLVESGGGLVQAGGSLRLSCAASGLIFYWYAMGWYRQAPGKERELVAAITWSGGITYYADSVKGRFTISRDNAKNTVYLQMNSLKPEDTAVYYCAADDDYGDVTYDYWGQGTQVTVSS,low polyreactivity
7,QVQLVESGGGLVQAGGSLRLSCAASGRSFYTNAMGWYRPAPGKERELLAAIRRSGTSTYYADSVKGRFTISRDNAYNTVYLQMNSLKPEDTAVYYCAALRSLLYRTYGYWGLGTQVTVSS,low polyreactivity
8,QVQLVESGGGLVQAGGSLRLSCAASGFIFHWNAMGWYRQAPGKERELVAAITWRGTNTYYADSVKGRFTISRDNAKNTVYLQMNSLKPEDTAVYYCAGTRNPWPTSFDYWGQGTQVTVSS,low polyreactivity
9,QVQLVESGGGLVQAGGSLRLSCAASGFTFYRYAMGWYRKAPGKERELVAAISSSGGTTYYADSVKVRFTISRDHAKNTVYLQMNRLKPEDTAVYYCAARGWPNWGWGYDYWGQGTQVTVSS,high polyreactivity
10,QVQLVESGGGLVQAGCSLRLSCAASGRIDRRYAMGWYRQAPGKERDLFAAISSRGGRTYYADSVKGRFTISRDNAMNTVYLQMNSLKQEDTAVYYCAARPAGYGHYKYYYWGKGTQVTVSS,high polyreactivity
11,QVQLVESGGGLVQAGGSVRLSCAASGRTSAWYAMGWYRQAPVKERELVADISGSADSTYYADSVKGRFTISRDNAKYTVYVQMHSLKPEDTAVYYRATSISTPTGDPFDYWGQRTQVTVSS,low polyreactivity
12,QVQLVESGGGLVQAGGSLRLSCAASGRIFSAYAMGWYRPAPGKERELVAAISWSGGSTYYADSVKGRFTISRDNAKNTVYLQMNSLKPEDTAVYYCAADYFYTSWYQHDYWGQGTQVTVSS,low polyreactivity
13,QVQLVESGGGLVQAGGSLRLSCAASGRIFAKNVMGWYRQGPGKEWELVAAISRSGGSTYYADSVKGRFSISRDNAKNTVYLQMNSLKPEDTAVSYCGAYYGPDSARYYGGYEYWGQGTQVTVSS,high polyreactivity
14,QVQLVESGGGLVQAGGSLRLSCAASGFNLRRNAMGWYRQAPGKERELVAAITSSGGRTTYADSVKGRFTISRDNAKNTVYLQMNSLKPEDTAVYYCAADFHVDYDYWGQGTQVTVSS,high polyreactivity
15,QVQLVESGGGLVQAGGSLRLSCAASGSIFVRYTIVWYRQSTWKEMELVAAITSGGRTYYADSVKGRFTISRDNAKNTVYLQMNSLKPEDTAVYYSADVPHIRRYGFYYWGQGTQVTVSS,high polyreactivity
16,QVQLVESGGGLVQAGGSLRLSCAASGFTFFRYAMGWYRQAPGKERELVATITRGGSTNYADSVKGRCTISRDNAKNTDYLQMNSLQPEDTAVYYCNKDKKTPTFDYWGQGTQVTVSS,low polyreactivity
17,QVQLVESGGGLVQAGGSLRLSCAASGSIFSRYTMGWYRQAPGKERELVAVISTSGGSTYYADSVKGRFTISRDNAKNTVYLQMNSLKPEDTAVYYCNARPKRGSLGGPGYGYWGQGTQVTVSS,high polyreactivity
18,QVHLVESGGGLVQAGGSLRLSCAASASIFGSNAMGWYRQAPGKDRELVAAITWSDGSTYYADSVKGRFTISRDNAKNTVYLQMNSLKPDDTAVYYCSSDYGYSWYDYWGQGTQVTVSS,low polyreactivity
19,QVHLVESGGCLVQAGGSLRLSCAASGFIFPTYAMGWYRQAPGKERELVATITTNAGGTHYADSVKGRFTISRDNAKNTVYLQMNCLKQEDTAVYYCAAKQYRPKQRKYWTRIYDYWGQGTQVTVSS,low polyreactivity
20,QVQLVESGGGLVQAGGSLRLSCAASGRIFRINAMGWYRQAPGKERELVATITSGGRTKYADSVKGRFTISRDNAKNTVYLQMNSLKPEDTAVYYCAADWRVRVRQHIPDKYDYWGQGTQVTVSS,low polyreactivity
21,QVQLVESGGGLVQAGGSLRLICAASGSTFGVYAMGWYRQAPGKEREMVAAIRWSSGSTYYADSVKGRFTISRDNAKNTVYLQMNSLKPEDTAVYYCAKTRGIYNIRFGYWGQGTQVTVSS,high polyreactivity

# Source: the nanobody polyreactivity screen of Harvey et al. (2022)
